The target in the assay is T1, MBP-tagged WHAMM membrane-interaction domain (WMD) (human, UniProt Q8TF30 1-260).
T1 sequence (looked up): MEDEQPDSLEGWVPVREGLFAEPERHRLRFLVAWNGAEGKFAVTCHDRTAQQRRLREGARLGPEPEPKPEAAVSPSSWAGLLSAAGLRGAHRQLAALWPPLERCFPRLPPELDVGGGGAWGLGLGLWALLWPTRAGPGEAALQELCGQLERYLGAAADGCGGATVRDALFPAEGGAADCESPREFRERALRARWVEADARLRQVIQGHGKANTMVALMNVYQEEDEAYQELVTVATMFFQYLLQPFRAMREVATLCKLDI
The experiment in a line: pull-down.

B1: GST-Rab1a, membrane-extracted prenylated form (Rab1(M)) (natural protein)
chain: not shown
modifications: prenylated (residues not stated)
Take B1: the binding result is on record as “binds”.

Values taken from paper PMC4791140 (Molecular Biology of the Cell, 2016).
